According to patent US20260167731A1 (DOMAIN THERAPEUTICS, published 2026):
Changes are numbered by the printed parent chain. Values joined by “and” are separate entries in the source; they are usually repeats but may differ in a detail not shown here. Equal entries are not always repeated.

B1: anti-CCR8 mAb 2-5 (antibody, V domains shown)
VH: EVQLQQSGPELVKPGASVKISCKTSGYTFTEYTIHWVKQSHGKSLEWVGGINPDNGNTRYDQKFKGKATLTIDKSSSTAYMELRSLTSEDSAVYYCARVARSSGSGPYAMDYWGQGTSVTVSS
VL: DVVMTQTPLSLPVSLGDQASISCRCTQSLLHTNGDTYLHWYLQKPGQSPKLLIYKVSNRFSGVPDRFSGSGSGTDFTLKISRVEAEDLGVYFCSQSTHVPYTFGGGTKLEIK
B2: anti-CCR8 mAb 2-7 (antibody, V domains shown)
VH: QVQLKESGPGLVAPSQSLSITCTVSGFSLTDYRVSWIRQPPGKGLEWLGVIWGGRSTYYNSALKSRLSISKDNSKSQVFLKMNSLQTDDTAMYYCAKQGDGYYALDYWGQGTSVTVSS
VL: B1 VL with C25S, T26S, L30V, T32S, N33Y, D35N, S68H, Y101P
B3: anti-CCR8 mAb 2-8 (antibody, V domains shown)
VH: QVQLKESGPGLVAPSQSLSITCTVSGFSLTDYGVSWIRQPPGKGPEWLGVIWGGGNTYYNSVLKSRLSISNDNSKSQVFLRMNSLQTADTAIYYCARPRRDYYALDYWGQGTSVTVAS
VL: B1 VL with C25S, T26S, L30V, H31Y, D35N, Y37F, Y101P
B4: chimeric anti-CCR8 mAb 2-17 (antibody, human IgG1, kappa)
heavy: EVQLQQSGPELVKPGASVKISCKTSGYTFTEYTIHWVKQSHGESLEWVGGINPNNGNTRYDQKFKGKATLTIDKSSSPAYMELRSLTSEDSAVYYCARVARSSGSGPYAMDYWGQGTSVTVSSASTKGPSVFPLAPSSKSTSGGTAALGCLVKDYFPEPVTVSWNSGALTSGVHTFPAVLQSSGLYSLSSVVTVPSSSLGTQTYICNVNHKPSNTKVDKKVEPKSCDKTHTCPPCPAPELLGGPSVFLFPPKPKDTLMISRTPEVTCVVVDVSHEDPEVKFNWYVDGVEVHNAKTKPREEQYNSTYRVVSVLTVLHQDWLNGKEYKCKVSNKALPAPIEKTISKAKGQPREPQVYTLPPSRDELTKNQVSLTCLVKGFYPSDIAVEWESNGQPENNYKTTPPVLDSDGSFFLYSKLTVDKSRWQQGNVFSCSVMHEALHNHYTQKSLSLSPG
light: DVVMTQTPLSLPVSLGDQASISCRCTQSLLHTNGDTYLHWYLQKPGQSPKLLIYKVSNRFSGVPDRFSGSGSGTDFTLKISRVEAEDLGVYFCSQSTHVPYTFGGGTKLEIKRTVAAPSVFIFPPSDEQLKSGTASVVCLLNNFYPREAKVQWKVDNALQSGNSQESVTEQDSKDSTYSLSSTLTLSKADYEKHKVYACEVTHQGLSSPVTKSFNRGEC
B5: hypofucosylated (low fucosylated) chimeric anti-CCR8 mAb 2-19 (antibody, human IgG1, kappa)
heavy: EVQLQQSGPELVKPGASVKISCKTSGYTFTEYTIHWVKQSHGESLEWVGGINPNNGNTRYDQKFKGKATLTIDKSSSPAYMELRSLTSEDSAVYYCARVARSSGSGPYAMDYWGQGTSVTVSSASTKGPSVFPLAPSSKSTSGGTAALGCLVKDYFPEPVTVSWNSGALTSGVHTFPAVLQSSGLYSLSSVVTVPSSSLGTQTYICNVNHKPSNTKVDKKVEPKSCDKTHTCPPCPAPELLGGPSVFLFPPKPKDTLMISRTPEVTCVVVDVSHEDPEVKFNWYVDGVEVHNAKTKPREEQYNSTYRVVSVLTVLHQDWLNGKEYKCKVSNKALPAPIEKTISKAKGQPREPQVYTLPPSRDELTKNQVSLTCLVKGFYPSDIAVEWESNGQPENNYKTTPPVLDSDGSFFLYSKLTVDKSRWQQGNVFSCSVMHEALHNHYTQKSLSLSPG
light: B4 light
modifications: hypofucosylated Fc glycan
B6: anti-CCR8 mAb 2-6 (antibody, V domains shown)
VH: QVQLKESGPGLVAPSQSLSITCTVSGLSMNDYVVTWIRQPPGKGLEWLGVIWGGGNTYYNSDLKSRLSITKDNSKSQVFFKMSSLQTDDTAVYYCARRHRDYALDYWGQGISVTVSS
VL: ENVLTQSPAIMSASPGEKVTMTCRASSSVSSSYLHWYQQKSGASPKLWIYSTSNLASGVPARFSGSGSGTSYSLTISSVEAEDAATYYCQQYSGYPYTFGGGTKLEIK
B7: anti-CCR8 mAb 2-9 (antibody, V domains shown)
VH: QVQLQQPGSELVRPGASVKLSCKASGYTFTSYWMHWVKQRPGQGLEWIGNIWPGSASTNYDEKFKNKATLTVDTSSSTAYMQLSSLTSEDSAVYYCIRGGKGAMDYWSQGTSVTVSS
VL: DVVMTQIPLSLPVSLGDQASISCRSSQSLENSYGNTYLNWYLQKPGQSPQLLIYRVSNRFSGVLDRFSGSGSGTDFTLKISRVEAEDLGVYFCLQVTHVPPTFGAGTKLELK

How the values were obtained:
human CCR8 [1] = molecular target: T1, human CCR8 (human, UniProt P51685 1-355); test: flow cytometry, inhibition of hCCL1-AF647 binding to hCCR8 CHO cells
T1 construct: also called hCCR8; hCCR8_P51685
Description: The hCCR8 transfected CHO cell line was dispatched at a density of 1·10⁵ per well in a 96-well plate. Cells were incubated for 30 min at 4° C. with or without anti-CCR8 mAb tested at 10 μg/mL then diluted at 1/3. Unbound antibodies were washed away with PBS (Gibco, Villebon-sur-Yvette, France) supplemented by 2% Fetal Bovine Serum (Invitrogen by Thermofisher Scientific, Illkirch-Graffenstaden, France) and 2 mM EDTA. […] After washing unbound ligands, CCL1 bound detection is quantified on a MacsQuant16 (Miltenyi, Gladbach, Germany) (R1 channel, 5 000 events per acquisition).
For IC₅₀ determination, a concentration response curve is performed using 8 concentrations of mAb. Curves are fitted and IC₅₀ of CCL1 binding blocking activity is calculated using the sigmoidal dose-response (variable slope) model on GraphPad Prism 9 (GraphPad Software, San Diego, CA, USA).

human CCR8 [2] = molecular target: T1, human CCR8; test: cell-based or functional assay
human CCR8 [3] = molecular target: T1, human CCR8; test: flow cytometry, hCCR8 transfected CHOK1 cells
Description: The same staining protocol was applied on human CCR8 transfected CHO cell line versus wild type CHO cell line, cutaneous T cell lymphoma HUT78 cell line and human activated T cell model.
Briefly, 1·10⁵ cells per well in a 96 well plate were incubated with a dilution of unconjugated anti-CCR8 mAb at 10 μg/mL then diluted at 1/3.33, 4 dilution points (during 30 min at 4° C.). In human activated T cells model, prior to mAb incubation, cells were first incubated with 200 nM of hCCL1 (R&D Systems, Minneapolis, MN, USA) or buffer PBS (Invitrogen by Thermofisher Scientific, Illkirch-Graffenstaden, France) supplemented by 2% Fetal Bovine Serum (Invitrogen by Thermofisher Scientific, Illkirch-Graffenstaden, France) and 2 mM EDTA (Invitrogen by Thermofisher Scientific, Illkirch-Graffenstaden, France) during 1 hour at 4° C. To determine EC50 value, 8 concentrations of anti-CCR8 mAb were tested. Unbound antibodies were washed away with PBS (Invitrogen by Thermofisher Scientific, Illkirch-Graffenstaden, France) supplemented by 2% Fetal Bovine Serum (Invitrogen by Thermofisher Scientific, Illkirch-Graffenstaden, France) and 2 mM EDTA (Invitrogen by Thermofisher Scientific, Illkirch-Graffenstaden, France). Subsequently, cells are centrifuged (5 min at 400 g) and bound antibody is detected with F(ab′)₂-Goat anti-Mouse IgG (H+L) Cross-Adsorbed Secondary Antibody, Alexa Fluor 488 (dilution 1/500) (Invitrogen by Thermofisher Scientific, Illkirch-Graffenstaden, France) or with F(ab′)₂-Goat anti-Human IgG Fc Secondary Antibody, PE (Invitrogen by Thermofisher Scientific, Illkirch-Graffenstaden, France) (dilution 1/1000) at 4° C. for 30 min. Detection reagent is washed away and cells are centrifuged (5 min at 400 g) and resuspended in 30 μL PBS. Bound detection antibody is quantified on a MacsQuant16 (Miltenyi, Gladbach, Germany) (B1 or B2 channel, 5000 events per acquisition). During the experiment, the respective isotype mAb controls (mouse IgG1, mouse IgG2a, mouse IgG2b, mouse IgG3 or human IgG1) (Biolegend, Amsterdam, The Netherlands) are included to exclude any unspecific binding events.

[4] = molecular target: pm8, modified CCR8 related peptide (human, sulfated tyrosines at Y15, Y16 and Y17); test: ELISA on coated CCR8 peptide (500 ng/mL), OD [cont.]
Description: (§1) The specific binding properties of antibodies were evaluated by ELISA with coated CCR8 related peptides (500 ng/mL) in carbonate/bicarbonate buffer. Different peptides were used as described in Table 1 (see Example 1). Each anti-CCR8 mAb was tested at 1 μg/mL then diluted at 1/10. After an incubation at room temperature during 90 min, unbound mAbs were removed by washings. […] After washings, 3,3′,5,5′-tetramethylbenzidine (TMB) (Interchim, Montlugon, France) was added for 15 min. Then the optical density (OD) was determined by using a multiplate reader (Tecan, Lyon, France) and correlated with mAb reactivity on the panel of coated peptides.

[5] = molecular target: T2, pwt1, unmodified CCR8 related peptide (human, none (non-sulfated Y15, Y16, Y17)); test: as above
T2 construct: First 34 amino acids of human CCR8, synthetic; also called unmodified peptide
Description: as §1

[6] = molecular target: pm5, modified CCR8 related peptide (human, sulfated tyrosines at Y15 and Y17); test: as above
Description: as §1

[7] = molecular target: pm3, modified CCR8 related peptide (human, sulfated tyrosine at Y17); test: as above
Description: as §1

[8] = molecular target: pm6, modified CCR8 related peptide (human, sulfated tyrosines at Y16 and Y17); test: as above
Description: as §1

[9] = molecular target: pm4, modified CCR8 related peptide (human, sulfated tyrosines at Y15 and Y16); test: as above
Description: as §1

[10] = molecular target: pm2, modified CCR8 related peptide (human, sulfated tyrosine at Y16); test: as above
Description: as §1

[11] = molecular target: pm1, modified CCR8 related peptide (human, sulfated tyrosine at Y15); test: as above
Description: as §1

human CCR8 [12] = molecular target: T1, human CCR8; test: cell-based or functional assay; remark: listed apart in the source
human CCR8 [13] = molecular target: T1, human CCR8; test: cell-based or functional assay; remark: listed apart in the source
human CCR8 [14] = molecular target: T1, human CCR8; test: cell-based or functional assay; remark: listed apart in the source

pm3, modified CCR8 related peptide (human, sulfated tyrosine at Y17), sequence (peptide, as listed by the source): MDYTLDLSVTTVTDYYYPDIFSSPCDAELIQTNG
pm2, modified CCR8 related peptide (human, sulfated tyrosine at Y16), sequence (peptide, as listed by the source): as above
T2 sequence (peptide, as listed by the source): as above
pm4, modified CCR8 related peptide (human, sulfated tyrosines at Y15 and Y16), sequence (peptide, as listed by the source): as above
pm5, modified CCR8 related peptide (human, sulfated tyrosines at Y15 and Y17), sequence (peptide, as listed by the source): as above
pm1, modified CCR8 related peptide (human, sulfated tyrosine at Y15), sequence (peptide, as listed by the source): as above
pm8, modified CCR8 related peptide (human, sulfated tyrosines at Y15, Y16 and Y17), sequence (peptide, as listed by the source): as above
pm6, modified CCR8 related peptide (human, sulfated tyrosines at Y16 and Y17), sequence (peptide, as listed by the source): as above

| Binder | IC50 (human CCR8 [1]) | IC50, CCL1 induced hCCR8 Gi2 signaling (BRET, HEK-293) (human CCR8 [2]) | % positive cells (human CCR8 [3]) [%] | MFI fold change to isotype ctrl (human CCR8 [3]) [fold] | binding result [4] | binding result [5] | binding result [6] | binding result [7] | binding result [8] | binding result [9] | binding result [10] | binding result [11] | other results |
| --- | --- | --- | --- | --- | --- | --- | --- | --- | --- | --- | --- | --- | --- |
| B1 | 1.15 µg/mL and 7.73 nM | 0.044 µg/mL and 0.291 nM | 73.7 | 10.3 | binds | binds | binds | binds | binds | binds | binds | binds | – |
| B2 | 2.73 µg/mL and 18.3 nM | 0.552 µg/mL and 3.68 nM | 57.7 | 3.84 | binds | binds | binds | binds | binds | binds | binds | binds | IC50, CCL1 induced hCCR8 Gi2 signaling (BRET) at pH 6.5 (human CCR8 [12]): 0.516 µg/ml and 3.44 nM; IC50, CCL1 induced hCCR8 Gi2 signaling (BRET) at pH 7.4 (human CCR8 [12]): 0.82 µg/ml and 5.47 nM |
| B3 | 2.22 µg/mL and 14.8 nM | 0.712 µg/mL and 4.75 nM | 78.9 | 6.36 | binds | binds | binds | binds | binds | binds | binds | binds | IC50, CCL1 induced hCCR8 Gi2 signaling (BRET) at pH 6.5 (human CCR8 [12]): 0.578 µg/ml and 3.85 nM; IC50, CCL1 induced hCCR8 Gi2 signaling (BRET) at pH 7.4 (human CCR8 [12]): 0.812 µg/ml and 5.41 nM |
| B4 | – | – | – | – | – | – | – | – | – | – | – | – | ADCC % Max lysis, HUT78 targets, NK cells Donor 3 (human CCR8 [13]): 14%; ADCC % Max lysis, HUT78 targets, NK cells Donor 4 (human CCR8 [13]): 15%; ADCC EC50, HUT78 targets, NK cells Donor 3 (human CCR8 [13]): 793 pM; ADCC EC50, HUT78 targets, NK cells Donor 4 (human CCR8 [13]): 1520 pM |
| B5 | – | – | – | – | – | – | – | – | – | – | – | – | ADCC % Max lysis, HUT78 targets, NK cells Donor 3 (human CCR8 [13]): 29%; ADCC % Max lysis, HUT78 targets, NK cells Donor 4 (human CCR8 [13]): 29%; ADCC EC50, HUT78 targets, NK cells Donor 3 (human CCR8 [13]): 195 pM; ADCC EC50, HUT78 targets, NK cells Donor 4 (human CCR8 [13]): 282 pM |
| B6 | 1.25 µg/mL and 8.34 nM | 0.106 µg/mL and 0.706 nM | 69.9 | 5.81 | binds | binds | binds | binds | binds | binds | binds | binds | – |
| B7 | 1.18 µg/mL and 7.92 nM | 0.026 µg/mL and 0.172 nM | 81.6 | 9.92 | – | – | – | – | – | – | – | – | hCCL1 (100 nM) residual response in %, Protocol #2, mAb 0.08 µg/mL (0.53 nM) (human CCR8 [14]): 99%; hCCL1 (100 nM) residual response in %, Protocol #2, mAb 0.4 µg/mL (2.67 nM) (human CCR8 [14]): 83%; hCCL1 (100 nM) residual response in %, Protocol #2, mAb 10 µg/mL (66.7 nM) (human CCR8 [14]): 56%; hCCL1 (100 nM) residual response in %, Protocol #3, mAb 0.05 µg/mL (0.33 nM) (human CCR8 [14]): 116%; hCCL1 (100 nM) residual response in %, Protocol #3, mAb 0.5 µg/mL (3.33 nM) (human CCR8 [14]): 90%; hCCL1 (100 nM) residual response in %, Protocol #3, mAb 5 µg/mL (33.3 nM) (human CCR8 [14]): 45% |
